Data set [1] addresses T1, NRSYM1(531-976)-myc (Lotus japonicus (WT, MG-20?), UniProt A0A2Z5V8A6 531-976). The experiment in a line: EMSA; 20 mM HEPES-KOH pH 7.9, 50 mM KCl, 1 mM DTT, 4% glycerol, 0.1% Triton X-100, BSA (2 mg) and salmon sperm DNA (1 mg) as printed, 10 ul, 30 min room temperature. The following applies: protein: ivt, tags: 3xMyc (cds cloned downstream of the tag, N-terminal), 5' overhang 4 nt (ggtg) on both strands as printed. In general terms: A gel shift assay detects complexes by their altered migration in electrophoresis.

Data set [2] concerns the target T1, NRSYM1(531-976)-myc. The experiment in a line: competition; unlabeled competitor 20x/100x vs CLE-RS2-1 probe; 20 mM HEPES-KOH pH 7.9, 50 mM KCl, 1 mM DTT, 4% glycerol, 0.1% Triton X-100, BSA (2 mg) and salmon sperm DNA (1 mg) as printed, 10 ul, 30 min room temperature. The following applies: protein: ivt; tags: 3xMyc (cds cloned downstream of the tag, N-terminal); label: biotin (probe); 5' overhang 4 nt (ggtg) on both strands as printed.

T1 sequence (A0A2Z5V8A6 entry or part of it): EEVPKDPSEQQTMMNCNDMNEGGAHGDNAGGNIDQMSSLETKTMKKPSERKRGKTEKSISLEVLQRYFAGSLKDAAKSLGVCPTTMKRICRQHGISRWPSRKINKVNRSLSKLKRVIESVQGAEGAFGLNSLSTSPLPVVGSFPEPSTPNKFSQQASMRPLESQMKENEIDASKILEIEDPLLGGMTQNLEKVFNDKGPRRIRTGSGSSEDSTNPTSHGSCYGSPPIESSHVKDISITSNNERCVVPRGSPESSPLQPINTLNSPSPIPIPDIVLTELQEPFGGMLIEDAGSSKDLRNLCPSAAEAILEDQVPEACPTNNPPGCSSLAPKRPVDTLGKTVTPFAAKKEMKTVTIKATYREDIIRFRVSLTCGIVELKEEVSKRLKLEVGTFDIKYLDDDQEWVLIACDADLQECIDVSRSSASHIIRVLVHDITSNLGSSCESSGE

B1: CLE-RS2-4 (dsDNA)
DNA 1: GGTGATATATTCATGATCTTTAATTCACTTGAAGAGTTAGTGATTGAT
DNA 2: GGTGATCAATCACTAACTCTTCAAGTGAATTAAAGATCATGAATATAT
B1: the binding result with NRSYM1(531-976)-myc [1] (label: biotin (probe)) is “binds”.

B2: CLE-RS2-3 (dsDNA)
DNA 1: GGTGGTATCAAACTGACCCCTAGTTTCAGTCCAAAGCCACCTTGATTG
DNA 2: GGTGCAATCAAGGTGGCTTTGGACTGAAACTAGGGGTCAGTTTGATAC
In the case of B2, the binding result with NRSYM1(531-976)-myc [1] (label: biotin (probe)) was “binds”.

B3: LjNIR1-3 (dsDNA)
DNA 1: GGTGACACAAACACGACCCTTTGTCACAACCAAAGGTCCATTGTAGCA
DNA 2: GGTGTGCTACAATGGACCTTTGGTTGTGACAAAGGGTCGTGTTTGTGT
Turning to B3, the binding result in the data set with NRSYM1(531-976)-myc [1] (label: biotin (probe)) is recorded as “binds”.

B4: LjNIR1-3m1 (dsDNA)
DNA 1: GGTGACACAAACACGAGGGAATGTCACAACCAAAGGTCCATTGTAGCA
DNA 2: GGTGTGCTACAATGGACCTTTGGTTGTGACATTCCCTCGTGTTTGTGT
B4: the binding result with NRSYM1(531-976)-myc [1] (label: biotin) is “no binding”.

B5: CLE-RS2-1 (dsDNA)
DNA 1: GGTGTGTGAGTTCTGACCCTTAAGCCTTGGAAAGGACAGTCATGCAA
DNA 2: GGTGTTGCATGACTGTCCTTTCCAAGGCTTAAGGGTCAGAACTCACA
For B5, in the data set with NRSYM1(531-976)-myc [1] (label: biotin (probe)), the binding result is on record as “binds”.

B6: CLE-RS2-1m (dsDNA)
DNA 1: GGTGTGTGAGTTCTGAGGGAAAAGCCTTGGAAAGGACAGTCATGCAA
DNA 2: GGTGTTGCATGACTGTCCTTTCCAAGGCTTTTCCCTCAGAACTCACA
Turning to B6, the binding result with NRSYM1(531-976)-myc [2] was “no binding”.

Source of the values: publication PMC5799372, “A NIN-LIKE PROTEIN mediates nitrate-induced control of root nodule symbiosis in Lotus japonicus”.
